Test results taken from the Human Domainome abundance scans (Beltran et al. 2025).
± gives the uncertainty stated by the source.

B1: Nucleolar transcription factor 1, residues 408 to 469; numbered along this chain, P17480 (parent)
chain: KRPVSAMFIFSEEKRRQLQEERPELSESELTRLLARMWNDLSEKKKAKYKAREAALKAQSER

Variants of: B1
Experiment: abundance fitness (aPCA) (normalised: wild type 0, dead -1); higher = more abundant; growth selection in yeast, the domain comes from the species named
Details: Homo sapiens

Row | Variant | abundance fitness
1 | E27F | -0.212 ± 0.091
2 | E27T | -0.133 ± 0.072
3 | E27N | -0.33 ± 0.19
4 | E27V | -0.201 ± 0.055
5 | E27Y | -0.108 ± 0.1
6 | E27D | 0.037 ± 0.1
7 | E27H | -0.4 ± 0.12
8 | E27K | -0.148 ± 0.089
9 | E27C | -0.165 ± 0.1
10 | E27M | -0.358 ± 0.085
11 | E27G | -0.09 ± 0.067
12 | E27P | -0.067 ± 0.066
13 | E27Q | -0.121 ± 0.12
14 | E27A | -0.143 ± 0.06
15 | E27W | -0.328 ± 0.11
16 | E27S | -0.178 ± 0.06
17 | R22P | -1.06 ± 0.16
18 | R22D | -0.139 ± 0.11
19 | R22I | -0.286 ± 0.083
20 | R22S | -0.119 ± 0.05
21 | R22T | -0.229 ± 0.075
22 | R22C | -0.081 ± 0.063
23 | R22E | -0.194 ± 0.11
24 | R22K | -0.089 ± 0.083

Row | Variant | abundance fitness
25 | R22Q | -0.058 ± 0.082
26 | R22N | -0.002 ± 0.089
27 | R22W | -0.132 ± 0.062
28 | R22V | -0.29 ± 0.053
29 | R22Y | -0.068 ± 0.07
30 | R22H | 0.06 ± 0.11
31 | R22F | -0.057 ± 0.068
32 | L25T | -0.423 ± 0.082
33 | L25R | -0.325 ± 0.054
34 | L25A | -0.106 ± 0.099
35 | L25C | -0.134 ± 0.072
36 | L25M | -0.011 ± 0.055
37 | L25Y | -0.173 ± 0.16
38 | L25N | -0.646 ± 0.13
39 | L25D | -0.633 ± 0.1
40 | L25K | -0.385 ± 0.082
41 | L25G | -0.946 ± 0.067
42 | L25E | -0.501 ± 0.076
43 | L25V | -0.155 ± 0.054
44 | L25Q | -0.477 ± 0.08
45 | S28K | -0.037 ± 0.09
46 | S28M | -0.131 ± 0.067
47 | S28H | -0.06 ± 0.046
48 | S28F | -0.071 ± 0.047

Row | Variant | abundance fitness
49 | S28E | -0.011 ± 0.14
50 | S28D | 0.055 ± 0.074
51 | S28G | -0.047 ± 0.06
52 | S28N | -0.053 ± 0.05
53 | S28Q | -0.08 ± 0.071
54 | S28R | -0.113 ± 0.065
55 | S28C | -0.043 ± 0.082
56 | S28A | -0.053 ± 0.058
57 | S28I | -0.046 ± 0.049
58 | S28P | -0.047 ± 0.047
59 | E20A | -0.092 ± 0.045
60 | E20C | -0.025 ± 0.066
61 | E20G | -0.064 ± 0.037
62 | E20D | 0.031 ± 0.11
63 | E20H | -0.09 ± 0.088
64 | E20W | -0.152 ± 0.051
65 | E20F | -0.018 ± 0.098
66 | E20P | -0.295 ± 0.065
67 | E20V | -0.055 ± 0.043
68 | E20S | -0.016 ± 0.055
69 | E20Y | -0.099 ± 0.13
70 | E20M | -0.099 ± 0.1
71 | E20R | -0.012 ± 0.042
72 | E20L | -0.1 ± 0.045

Row | Variant | abundance fitness
73 | E20K | 0.019 ± 0.074
74 | E20I | -0.114 ± 0.097
75 | E20T | -0.067 ± 0.082
76 | E20Q | -0.016 ± 0.061
77 | P23D | -0.431 ± 0.29
78 | P23A | -0.256 ± 0.07
79 | P23I | -0.187 ± 0.09
80 | P23K | -0.174 ± 0.062
81 | P23Y | -0.402 ± 0.13
82 | P23H | -0.267 ± 0.1
83 | P23G | -0.254 ± 0.058
84 | P23M | -0.291 ± 0.071
85 | P23T | -0.218 ± 0.068
86 | P23W | -0.588 ± 0.068
87 | P23S | -0.21 ± 0.06
88 | P23N | -0.319 ± 0.12
89 | P23V | -0.244 ± 0.067
90 | P23Q | -0.275 ± 0.078
91 | P23E | -0.357 ± 0.068
92 | P23F | -0.402 ± 0.09
93 | P23R | -0.252 ± 0.057
94 | L18V | -0.021 ± 0.041
95 | L18S | -0.632 ± 0.058
96 | L18Q | -0.531 ± 0.11

Row | Variant | abundance fitness
97 | L18R | -0.965 ± 0.052
98 | L18Y | -0.063 ± 0.1
99 | L18W | -0.338 ± 0.047
100 | L18T | -0.092 ± 0.074
101 | E21P | -1.1 ± 0.15
102 | E21Q | -0.006 ± 0.076
103 | E21V | -0.1 ± 0.056
104 | E21C | -0.076 ± 0.1
105 | E21W | -0.189 ± 0.064
106 | E21K | -0.065 ± 0.075
107 | E21A | -0.099 ± 0.072
108 | E21D | -0.126 ± 0.12
109 | E21I | -0.111 ± 0.18
110 | E21F | -0.238 ± 0.085
111 | E21H | -0.163 ± 0.12
112 | E21M | -0.073 ± 0.063
113 | E21T | 0.02 ± 0.066
114 | E21L | -0.097 ± 0.041
115 | E21R | -0.086 ± 0.044
116 | E21Y | -0.276 ± 0.1
117 | Q19N | -0.129 ± 0.074
118 | Q19A | -0.036 ± 0.06
119 | Q19V | -0.025 ± 0.047
120 | Q19K | 0.007 ± 0.068

Row | Variant | abundance fitness
121 | Q19H | -0.099 ± 0.084
122 | Q19S | -0.02 ± 0.041
123 | Q19I | 0.009 ± 0.091
124 | Q19F | -0.26 ± 0.11
125 | Q19Y | -0.095 ± 0.082
126 | Q19W | -0.159 ± 0.043
127 | Q19R | -0.016 ± 0.041
128 | Q19L | -0.017 ± 0.041
129 | Q19E | -0.067 ± 0.054
130 | Q19C | -0.083 ± 0.063
131 | Q19G | -0.076 ± 0.039
132 | Q19T | -0.128 ± 0.065
133 | Q19M | 0.012 ± 0.055
134 | E24D | 0.03 ± 0.099
135 | E24A | -0.114 ± 0.059
136 | E24T | -0.123 ± 0.057
137 | E24F | -0.144 ± 0.085
138 | E24H | -0.074 ± 0.11
139 | E24V | -0.401 ± 0.057
140 | E24C | -0.225 ± 0.14
141 | E24L | -0.209 ± 0.049
142 | E24Q | -0.151 ± 0.1
143 | E24M | -0.148 ± 0.083
144 | E24P | -0.451 ± 0.093

Row | Variant | abundance fitness
145 | E24S | -0.147 ± 0.05
146 | E24I | -0.544 ± 0.085
147 | E24R | -0.225 ± 0.06
148 | E24W | -0.083 ± 0.064
149 | E24N | -0.199 ± 0.16
150 | E24G | -0.069 ± 0.05
151 | S26W | -0.944 ± 0.094
152 | S26K | -0.476 ± 0.18
153 | S26D | -0.157 ± 0.098
154 | S26L | -0.231 ± 0.07
155 | S26A | -0.115 ± 0.056
156 | S26E | -0.109 ± 0.062
157 | S26H | -0.182 ± 0.1
158 | S26N | -0.1 ± 0.1
159 | S26R | -0.157 ± 0.059
160 | S26I | -0.29 ± 0.17
161 | S26T | -0.144 ± 0.089
162 | S26P | -0.16 ± 0.09
163 | S26M | -0.052 ± 0.088
164 | S26Y | -0.536 ± 0.2
165 | S26F | -0.592 ± 0.11
166 | S26C | -0.263 ± 0.18
167 | S26Q | -0.104 ± 0.085
